8 substances from patent US20240043507A1 can be followed below.

Broadly, the Kd is the equilibrium constant for the complex coming apart. Read a low Kd as a tighter complex.

Assay [1] concerns the target SARS-CoV-2 spike receptor binding domain (native RBD) (SARS-CoV-2) (UniProt P0DTC2).
Assay [2] concerns the target SARS-CoV-2 receptor binding domain, native (501N) (SARS-CoV-2) (UniProt P0DTC2). Put plainly: BLI, RBD immobilised on AR2G biosensor, 1:1 fit. (Biolayer interferometry detects binding as a change in optical thickness at a sensor tip.)

As for AZD8895 (antibody), the Kd in assay [1] is 1.49 nM.
AZD1061 (antibody) registered a Kd in assay [1] of 1.04 nM.
In the case of “AZD8895 as tested by BLI (Fab by the footnote of Table 12)”, in assay [2], the Kd is 1.49 nM.
In assay [2], “REGN10987 as tested by BLI (Fab by the footnote of Table 12)” returned a Kd of 3.85 nM.
In assay [1], REGN10987 (antibody) registered a Kd of 3.85 nM.
In assay [2], “AZD1061 as tested by BLI (Fab by the footnote of Table 12)” gave an equilibrium dissociation constant (Kd) of 1.04 nM. In other words, the single-digit nanomolar range.
REGN10933 (antibody) displayed an equilibrium dissociation constant (Kd) in assay [1] of 1.82 nM.
For the substance “REGN10933 as tested by BLI (Fab by the footnote of Table 12)”, the Kd in assay [2] is 1.82 nM.
